Measured values as given in the RNAGym collection of RNA variant scans (doi:10.1093/nar/gkz1192).

B1: CPEB3 Ribozyme (parent)
chain: UAACAGGGGGCCACAGCAGAAGCGUUCACGUCGCAGCCCCUGUCAGAUUCUGGUGAAUCUGCGAAUUCUGCUGUAUAUCUC

Variants of: B1
Test: self-cleavage, relative activity (ratio to wild type); higher = more cleavage; in vitro, sequencing
Outline: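 Relative activity compares each variant's cleaved/total read fraction with that of the unmutated ribozyme. To get these fractions, barcoded CPEB3 ribozyme libraries from rounds of error-prone PCR were transcribed with T7 RNA polymerase for 5 hours at 37°C and then given 15 min of DNase I treatment before EDTA was added. The RNAs were reverse transcribed with template switching and sequenced on Illumina, and DNA sequencing linked barcodes to variants. A minimum of 5 reads applied, and three batches were averaged.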

Question: Which self-cleavage does the source give for UAACAGGGGGCCACAGCAUAAGCGUUCACGUCGCAGCCCCUGUCAGAUUCUGGUGAAACUGCGAAUUCUGCUGUAUAUCUC here?
Answer: 0.04

Question: For UAACAGGGGGCCACAGCAUAAGCGUUCACGUCGCAGCCCCUGUCAGAUUCUGGUGAACCUGCGAAUUCUGCUGUAUAUCUC, which self-cleavage is on record?
Answer: 0.39

Question: For UAACAGGGGGCCACAGCAUAAGCGUUCACGUCGCAGCCCCUGUCAGAUUCUGGUGAAGCUGCGAAUUCUGCUGUAUAUCUC, which self-cleavage is on record?
Answer: 0.12

Question: With UAACAGGGGGCCACAGCAUAAGCGUUCACGUCGCAGCCCCUGUCAGAUCCUGGUGAAUCUGCGAAUUCUGCUGUAUAUCUC as the variant, how does the self-cleavage read?
Answer: 0.15

Question: For UAACAGGGGGCCACAGCAUAAGCGUUCACGUCGCAGCCCCUGUCAGAUACUGGUGAAUCUGCGAAUUCUGCUGUAUAUCUC, which self-cleavage is on record?
Answer: 0.08

Question: For UAACAGGGGGCCACAGCAGCAGCGUUCACGUCGCAGCCCCUGUCAGAUUCUGGUGAAUCUGCGGAUUCUGCUGUAUAUCUC, which self-cleavage is on record?
Answer: 0.07

Question: Which self-cleavage does the source give for UAACAGGGGGCCACAGCAGCAGCGUUCACGUCGCAGCCCCUGUCAGAUUCUGGUGAAUCUGCGUAUUCUGCUGUAUAUCUC here?
Answer: 0.17

Question: For UAACAGGGGGCCACAGCAGCAGCGUUCAUGUCGCAGCCCCUGUCAGAUUCUGGUGAAUCUGCGAAUUCUGCUGUAUAUCUC, which self-cleavage is on record?
Answer: 0.12

Question: Which self-cleavage does the source give for UAACAGGGGGCCACAGCAGCAGCGUUCACGUAGCAGCCCCUGUCAGAUUCUGGUGAAUCUGCGAAUUCUGCUGUAUAUCUC here?
Answer: 0.25

Question: Which self-cleavage does the source give for UAACAGGGGGCCACAGCAGCAGCGUUCACGUCGCAGCCCCUGUCAGAUUCUGGUGAAUCUGCGAGUUCUGCUGUAUAUCUC here?
Answer: 0.42

Question: With UAACAGGGGGCCACAGCAGCAGCGUUCACGUCGCAGCCCCUGUCAGGUUCUGGUGAAUCUGCGAAUUCUGCUGUAUAUCUC as the variant, how does the self-cleavage read?
Answer: 0.45

Question: With UAACAGGGGGCCACAGCAGCAGCGUUCACGUCGCAGCCCCUGUCAGUUUCUGGUGAAUCUGCGAAUUCUGCUGUAUAUCUC as the variant, how does the self-cleavage read?
Answer: 0.47

Question: For UAACAGGGGGCCACAGCAUAAGCGUUCACGUCGCAGCCCCUGUCAGAUUCUGGUGAAUCUGCGAAUUCUGCUGUAUAUCAC, which self-cleavage is on record?
Answer: 0.19

Question: With UAACAGGGGGCCACAGCAUAAGCGUUCACGUCGCAGCCCCUGUCAGAUUCUGGUGAAUCUGCGAAUUCUGCUGUAUAUCCC as the variant, how does the self-cleavage read?
Answer: 0.26

Question: For UAACAGGGGGCCACAGCAUAAGCGUUCACGUCGCAGCCCCUGUCAGAUUCUGGUGAAUCUGCGAAUUCUGCUUUAUAUCUC, which self-cleavage is on record?
Answer: 0.56

Question: With UAACAGGGGGCCACAGCAUAAGCGUUCACGUCGCAGCCCCUGUCAGAUUCAGGUGAAUCUGCGAAUUCUGCUGUAUAUCUC as the variant, how does the self-cleavage read?
Answer: 0.18

Question: For UAACAGGGGGCCACAGCAUAAGCGUUCACGUCGCAGCCCCUGUCAGAUUCCGGUGAAUCUGCGAAUUCUGCUGUAUAUCUC, which self-cleavage is on record?
Answer: 0.22

Question: Which self-cleavage does the source give for UAACAGGGGGCCACAGCAGCAGCGUUCACGCCGCAGCCCCUGUCAGAUUCUGGUGAAUCUGCGAAUUCUGCUGUAUAUCUC here?
Answer: 0.14

Question: For UAACAGGGGGCCACAGCAGCAGCGUUAACGUCGCAGCCCCUGUCAGAUUCUGGUGAAUCUGCGAAUUCUGCUGUAUAUCUC, which self-cleavage is on record?
Answer: 0.37

Question: Which self-cleavage does the source give for UAACAGGGGGCCACAGCAGCAGCGUUCACGUCGUAGCCCCUGUCAGAUUCUGGUGAAUCUGCGAAUUCUGCUGUAUAUCUC here?
Answer: 0.18

Question: With UAACAGGGGGCCACAGCAGCAGCGUUCACUUCGCAGCCCCUGUCAGAUUCUGGUGAAUCUGCGAAUUCUGCUGUAUAUCUC as the variant, how does the self-cleavage read?
Answer: 0.05

Question: With UAACAGGGGGCCACAGCAUAAGCGUUCACGUCGCAGCCCCUGUCAGAUUCUGGUGAAUCUGCGAAUUCUGCUGUAAAUCUC as the variant, how does the self-cleavage read?
Answer: 0.18

Question: With UAACAGGGGGCCACAGCAUAAGCGUUCACGUCGCAGCCCCUGUCAGAUUCUGGUGAAUCUGCGAAUACUGCUGUAUAUCUC as the variant, how does the self-cleavage read?
Answer: 0.13

Question: With UAACAGGGGGCCACAGCAUAAGCGUUCACGUCGCAGCCCCUGUCAGAUUCUGGUGAAUCUGCGAAUCCUGCUGUAUAUCUC as the variant, how does the self-cleavage read?
Answer: 0.13

Question: For UAACAGGGGGCCACAGCAGCAGCGUUCACGUCGCAGCCCCUGUCCGAUUCUGGUGAAUCUGCGAAUUCUGCUGUAUAUCUC, which self-cleavage is on record?
Answer: 0.35

Question: With UAACAGGGGGCCACAGCAGCAGCGUUCACGUCGCAGCCCCUGUCUGAUUCUGGUGAAUCUGCGAAUUCUGCUGUAUAUCUC as the variant, how does the self-cleavage read?
Answer: 0.2

Question: With UAACAGGGGGCCACAGCAGCAGCGUUCACGUCGCAGCCCCUGUCGGAUUCUGGUGAAUCUGCGAAUUCUGCUGUAUAUCUC as the variant, how does the self-cleavage read?
Answer: 0.33

Question: With UAACAGGGGGCCACAGCAGCAGCCUUCACGUCGCAGCCCCUGUCAGAUUCUGGUGAAUCUGCGAAUUCUGCUGUAUAUCUC as the variant, how does the self-cleavage read?
Answer: 0.1

Question: Which self-cleavage does the source give for UAACAGGGGGCCACAGCAGCAGCAUUCACGUCGCAGCCCCUGUCAGAUUCUGGUGAAUCUGCGAAUUCUGCUGUAUAUCUC here?
Answer: 0.21

Question: For UAACAGGGGGCCACAGCAGCAGCGUCCACGUCGCAGCCCCUGUCAGAUUCUGGUGAAUCUGCGAAUUCUGCUGUAUAUCUC, which self-cleavage is on record?
Answer: 0.34

Question: With UAACAGGGGGCCACAGCAGCAGCGUACACGUCGCAGCCCCUGUCAGAUUCUGGUGAAUCUGCGAAUUCUGCUGUAUAUCUC as the variant, how does the self-cleavage read?
Answer: 0.21

Question: For UAACAGGGGGCCACAGCAGCAGCGUUCACGUCGCUGCCCCUGUCAGAUUCUGGUGAAUCUGCGAAUUCUGCUGUAUAUCUC, which self-cleavage is on record?
Answer: 0.17

Question: For UAACAGGGGGCCACAGCAGCAGCGUUCACGUCGCGGCCCCUGUCAGAUUCUGGUGAAUCUGCGAAUUCUGCUGUAUAUCUC, which self-cleavage is on record?
Answer: 0.88

Question: Which self-cleavage does the source give for UAACAGGGGGCCACAGCAGCAGCGUUCGCGUCGCAGCCCCUGUCAGAUUCUGGUGAAUCUGCGAAUUCUGCUGUAUAUCUC here?
Answer: 0.24
